Numbering of substitutions follows the chain as printed.
Experiments:
Test in all cases: flow cytometry, alanine-scan library in HEK-293T
hsGLUT4 L260A = target: T1, hsGLUT4 L260A (human, UniProt P14672 1-509)
T1 sequence: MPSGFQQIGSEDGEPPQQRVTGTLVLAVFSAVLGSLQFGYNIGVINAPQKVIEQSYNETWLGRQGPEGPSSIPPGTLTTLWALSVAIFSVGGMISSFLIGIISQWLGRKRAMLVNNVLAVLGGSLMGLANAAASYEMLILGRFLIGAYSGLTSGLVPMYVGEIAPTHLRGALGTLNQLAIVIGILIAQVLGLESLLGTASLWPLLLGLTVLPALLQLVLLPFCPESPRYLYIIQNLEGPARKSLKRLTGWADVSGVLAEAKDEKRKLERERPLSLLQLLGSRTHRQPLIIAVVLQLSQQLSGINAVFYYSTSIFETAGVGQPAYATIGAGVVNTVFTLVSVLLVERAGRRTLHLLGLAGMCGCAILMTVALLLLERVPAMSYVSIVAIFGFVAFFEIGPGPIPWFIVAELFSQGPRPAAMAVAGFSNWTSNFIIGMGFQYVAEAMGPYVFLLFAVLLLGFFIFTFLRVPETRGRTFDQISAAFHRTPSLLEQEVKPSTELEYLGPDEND
Procedure, shortened: (§1)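 HEK-293T cells expressing individual GLUT4 alanine mutants were stained 48 h post-transfection with anti-GLUT4 scFv MAbs (2 μg/ml), then biotinylated secondary and streptavidin-PerCP, and read by high-throughput flow cytometry. Where used, cytochalasin B (10 uM final) was given for 30 min before and during primary antibody staining.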

hsGLUT4 I313A = target: T2, hsGLUT4 I313A (human, UniProt P14672 1-509)
T2 sequence: T1 sequence with A260L, I313A
Procedure, shortened: as §1

hsGLUT4 G414A = target: T3, hsGLUT4 G414A (human, UniProt P14672 1-509)
T3 sequence: T1 sequence with A260L, G414A
Procedure, shortened: as §1

hsGLUT4 R265A = target: T4, hsGLUT4 R265A (human, UniProt P14672 1-509)
T4 sequence: T1 sequence with A260L, R265A
Procedure, shortened: as §1

Molecule: 1F8 (antibody)
- % of binding to wild type GLUT4 (hsGLUT4 L260A): 98%
- % of binding to wild type GLUT4 (hsGLUT4 I313A): 85%
- % of binding to wild type GLUT4 (hsGLUT4 G414A): 78%
- % of binding to wild type GLUT4 (hsGLUT4 R265A): 101%

B1: AB111 (Fc fusion)
scFv: ALTQPSSVSANPGETVKITCSGSGSWYGWFQQKSPGSAPVTVIYSNDKRPSDIPSRFSGSKSGSTSTLTITGVQVEDEAVYYCGNWDIFGAGTTLTVLGQSSRSSGGGGSSGGGGSAVTLDESGGGLQTPGGALSLVCKASGFTFSSHGMGWVRQAPGKGLEWVASISTGRYTFYAPAVKGRATISRDNGQSTVRLQLNNLRAEDTATYYCTKCAGLNGCGGGEIDAWGHGTEVIVSS
notes: Bivalent scFv-Fc; also called MAb AB111; not shown: Fc fragment of human IgG1, cloned in frame with the scFv
- % of binding to wild type GLUT4 (hsGLUT4 L260A): 130%
- % of binding to wild type GLUT4 (hsGLUT4 I313A): 106%
- % of binding to wild type GLUT4 (hsGLUT4 G414A): 109%
- % of binding to wild type GLUT4 (hsGLUT4 R265A): 143%

B2: AB108 (Fc fusion)
scFv: ALTQPSSVSANLGGTVKITCSGSSGSYGWYQQKAPGSAPVTLIYRNDKRPSDIPSRFSGSESGSTGTLTITGVQAEDEAVYFCGGYDSSAGYAAFGAGTTLTVLGQSSRSSGGGGSSGGGGSAVTLDESGGGLQTPGGALSLVCKASGFTFSSHGMGWVRQAPGKGLEWVGSISTGRYTFYAPAVKGRATISRDNGQSTLRLQLNNLRAEDTGTYYCTKCAGLNGCGGGEIDAWGHGTEVIVSS
notes: Bivalent scFv-Fc; also called MAb AB108; not shown: Fc fragment of human IgG1, cloned in frame with the scFv
- % of binding to wild type GLUT4 (hsGLUT4 L260A): 108%
- % of binding to wild type GLUT4 (hsGLUT4 I313A): 39%
- % of binding to wild type GLUT4 (hsGLUT4 G414A): 80%
- % of binding to wild type GLUT4 (hsGLUT4 R265A): 111%

B3: AB101 (scFv)
scFv: ALTQPSSVSANPGETVKITCSGSSNSYGWYQQKSPGSAPVTVIYYNDKRPSDIPSRFSGSKSDSTHTLTITGVRAEDEAVYFCGSYDSTYVGIFGAGTTLTVLGQSSRSSGGGGSSGGGGSAVTLDESGGGLQTPGGTLSLVCKASGFTFSSNAMGWVRQAPGKGLEWVAGISSDGRYTKYGSAVKGRATISRDNGQSTVRLQLNNLRAEDTGTYFCAKAFGNNYRRIYAGQIDAWGHGTEVIVSS
notes: Chicken-derived clone used as a control; the four lead clones were tested as scFv-human IgG1 Fc; also called MAb AB101
- % of binding to wild type GLUT4 (hsGLUT4 L260A): 112%
- % of binding to wild type GLUT4 (hsGLUT4 I313A): 94%
- % of binding to wild type GLUT4 (hsGLUT4 G414A): 83%
- % of binding to wild type GLUT4 (hsGLUT4 R265A): 91%

Source: patent US20210238276A1 (INTEGRAL MOLECULAR, published 2021)
